{"source": "patent EP2246362B1", "about": "“Polymer conjugates of mutated neublastin” (Biogen Idec MA Inc., priority 2003, dated 2004)", "key": {"[1]": {"assay": "Pharmacokinetic studies in rats (circulating levels after IV, s.c. or i.p. administration)", "assay_type": "in vivo, Sprague Dawley rats", "protocol": "The proteins were below the threshold of detection in the serum following subcutaneous administration. To increase bioavailability of neublastin, PEGylated forms of mutated neublastin were constructed.\nThe pharmokinetic properties of various PEGylated and non-PEGylated mutated neublastin products in rat and mouse models were examined (see Table 8 for summary of results).\nFollowing a 1 mg/kg IV administration in Sprague Dawley rats, peak levels of PEGylated mutated neublastin of 3000 ng/mL were detected after 7 minutes, and levels of 700 ng/mL were detected after 24 h, 200 ng/mL after 48 h, and 100 ng/mL after 72 h. In contrast for non-PEGylated mutated neublastin N95K following a 1 mg/kg IV administration, levels of 1500 ng/mL were detected after 7 minutes, but then the levels quickly dropped to 70 ng/mL after 3 h and were not detectable after 7 h. The effects of PEGylation were even more pronounced in animals treated with PEGylated neublastin by subcutaneous administration.\nFollowing a 1 mg/kg s.c. administration, circulating levels of PEGylated neublastin reached a maximum of 200 ng/mL after 24 h and remained at this level for the duration of the three day study.\nThe analysis of the PEGylated N95K samples are complicated by the presence of adducts comprising 2, 3 and 4 PEGs per molecule, which each will display a different PK profile. In early PK studies, mice were used to facilitate screening through a variety of candidates and routes of administration. […] This difference in bioavailability was particularly pronounced following i.p. administration. Levels in mice reached 1600 ng/mL after 7 hr and remained at 400 ng/mL after 24 hr. In contrast, rat levels were constant at 100 ng/mL for 4-48 hr."}, "[2]": {"system": "Chung L5/L6 spinal nerve ligation (\"SNL\") model", "assay": "Reversal of tactile allodynia and thermal hyperalgesia in the spinal nerve ligation model (Von Frey and Hargreave's tests)", "assay_type": "in vivo, Sprague-Dawley male rats", "protocol": "Here, we describe studies to address the reversal effect ofpegylated N95K neublastin on tactile allodynia and thermal hyperalgesia in the Chung L5/L6 spinal nerve ligation (\"SNL\") model. Sprague-Dawley male rats (230 - 380g) were divided into two groups. All rats received the spinal nerve ligation. One group of rats (n=6) was administered vehicle by subcutaneous injection. A second group of rats (n=6 per group) were administered pegylated N95K neublastin (3,(4) X 10 kDa PEG NBN106-N95K) by subcutaneous injection at 10 µg/kg. 3(,4) X 10 kDa PEG NBN106-N95K, comprised neublastin protein that was E. coli-derived and contained an Asn-to-Lys amino acid substitution at position 95, then truncated (amino-terminus truncation of 7 amino acids; NBN106), and finally pegylated with an average of 3.3 PEG moieties per dimer ofNBN, using methoxylpoly(ethylene glycol)-succinimidyl propionate (SPA-PEG) with a molecular mass of 10,000 Da as the reactant. The vehicle consisted of 5 mM phosphate and 150 mM sodium chloride at pH 6.5. Subcutaneous injections were administered on days 3, 5, 7, 10, 12 and 14 following the operation (post-SNL). The Von Frey (Chaplan et al. (1994), J. Neurosci. Meth. 53: 55-63) and Hargreave's (Hargreaves et al. (1988), Pain. 32: 77-88) behavioral tests were used to monitor tactile and thermal responses, respectively. These pain responses were monitored prior to the spinal nerve ligation to establish baseline responses, on day 2 post-SNL to verify the presence of tactile and thermal hyperalgesia, and then on days 3, 5, 7, 10, 12, 14 and 15 post-SNL. To assess statistical significance of drug treatment relative to vehicle treatment, a 1-way analysis of variance (1-way ANOVA) was carried out followed by a post-hoc Student Neuman Keuls (SNK) test."}, "c-Ret": {"target": "T1, c-Ret (Mus musculus, UniProt O35118+P35546)", "T1 construct": "NB41A3-mRL3 cells, an adherent murine neuroblastoma cell line which expresses Ret and GFRα3; endogenous in cells; host or cells: NB41A3-mRL3 (murine neuroblastoma)", "T1 sequence (P35546 29-1115)": "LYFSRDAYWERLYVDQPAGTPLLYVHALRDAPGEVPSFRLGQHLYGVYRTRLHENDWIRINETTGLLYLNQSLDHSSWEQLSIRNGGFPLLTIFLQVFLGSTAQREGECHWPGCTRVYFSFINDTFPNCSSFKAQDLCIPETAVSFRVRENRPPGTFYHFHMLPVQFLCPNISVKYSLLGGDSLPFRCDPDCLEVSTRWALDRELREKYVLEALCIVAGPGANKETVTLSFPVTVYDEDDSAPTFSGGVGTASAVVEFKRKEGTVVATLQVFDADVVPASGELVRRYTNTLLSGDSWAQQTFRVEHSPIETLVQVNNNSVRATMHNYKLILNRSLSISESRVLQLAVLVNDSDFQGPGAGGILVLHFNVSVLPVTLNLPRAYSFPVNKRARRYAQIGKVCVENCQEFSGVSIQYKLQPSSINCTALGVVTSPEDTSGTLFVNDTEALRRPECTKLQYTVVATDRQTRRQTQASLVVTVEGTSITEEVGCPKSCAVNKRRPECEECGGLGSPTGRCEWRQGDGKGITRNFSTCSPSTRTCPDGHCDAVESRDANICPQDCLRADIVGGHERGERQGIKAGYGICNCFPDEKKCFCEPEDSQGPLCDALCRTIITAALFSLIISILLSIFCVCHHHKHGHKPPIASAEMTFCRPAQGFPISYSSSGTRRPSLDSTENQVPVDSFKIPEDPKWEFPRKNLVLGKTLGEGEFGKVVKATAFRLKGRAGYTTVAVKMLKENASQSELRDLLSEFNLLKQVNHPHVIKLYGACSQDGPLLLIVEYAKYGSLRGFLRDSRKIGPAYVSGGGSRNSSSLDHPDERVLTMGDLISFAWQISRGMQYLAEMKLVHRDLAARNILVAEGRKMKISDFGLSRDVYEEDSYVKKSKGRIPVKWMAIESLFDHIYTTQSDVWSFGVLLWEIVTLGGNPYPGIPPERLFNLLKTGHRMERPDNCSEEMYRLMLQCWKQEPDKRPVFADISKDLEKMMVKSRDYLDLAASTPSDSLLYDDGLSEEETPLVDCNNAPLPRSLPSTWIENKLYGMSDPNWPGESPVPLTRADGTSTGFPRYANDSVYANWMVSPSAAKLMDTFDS", "T1 sequence (O35118 29-397)": "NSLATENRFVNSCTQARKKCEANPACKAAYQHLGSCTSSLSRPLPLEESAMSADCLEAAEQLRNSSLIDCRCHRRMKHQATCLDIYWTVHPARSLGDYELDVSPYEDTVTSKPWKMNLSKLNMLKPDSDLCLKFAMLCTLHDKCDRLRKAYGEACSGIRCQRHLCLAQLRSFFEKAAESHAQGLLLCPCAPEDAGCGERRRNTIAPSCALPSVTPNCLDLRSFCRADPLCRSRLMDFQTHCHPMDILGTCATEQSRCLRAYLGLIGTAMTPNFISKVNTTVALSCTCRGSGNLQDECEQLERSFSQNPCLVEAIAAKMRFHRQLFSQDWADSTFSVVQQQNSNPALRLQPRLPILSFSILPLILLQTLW", "assay": "Kinase Receptor Activation (KIRA) ELISA: neublastin dependent phosphorylation of c-Ret in NB41A3-mRL3 cells", "assay_type": "cell-based, murine", "protocol": "The potency of PEGylated mutated rat neublastin was measured using neublastin dependent activation/ phosphorylation of c-Ret as a reporter for neublastin activity in an ELISA that was specific for the presence of phosphorylated RET. NB41A3-mRL3 cells, an adherent murine neuroblastoma cell line which expresses Ret and GFRα3, were plated at 2 x 10^5 cells per well in 24-well plates in Dulbecco's modified eagle medium (DMEM), supplemented with 10 % fetal bovine serum, and cultured for 18 h at 37 °C and 5 % CO2.\nThe cells were washed with PBS, and treated with serial dilutions of neublastin in 0.25 mL of DMEM for 10 min at 37°C and 5 % CO2. Each sample was analyzed in duplicate. The cells were washed with 1 mL of PBS, and lysed for 1h at 4 °C with 0.30 mL of 10 mM Tris HC1, pH 8.0, 0.5 % Nonidet P40, 0.2 % sodium deoxycholate, 50 mM NaF, 0.1 mM Na3 VO4,1 mM phenylmethylsulfonyl fluoride with gently rocking the plates. The lysates were further agitated by repeated pipetting and 0.25 mL of sample was transferred to a 96-well ELISA plate that had been coated with 5 µg/mL of anti-Ret mAb (AA.GE7.3) in 50 mM carbonate buffer, pH 9.6 at 4°C for 18 h, and blocked at room temperature for one hour with block buffer (20 mM Tris HC1 pH 7.5, 150 mM NaCl, 0.1% Tween-20 (TBST) containing 1 % normal mouse serum and 3 % bovine serum albumin).\nAfter a 2 h incubation at room temperature, the wells were washed 6-times with TBST. Phosphorylated Ret was detected by incubating the wells at room temperature for 2 h with 2 µg/mL of horseradish peroxidase (HRP)-conjugated anti-phosphotyrosine 4G10 antibody in block buffer, washing 6-times with TBST, and measuring HRP activity at 450 nm with a colorometric detection reagent. The absorbance values from wells treated with lysate or with lysis buffer were measured and the background corrected signal was plotted as a function of the concentration of neublastin present in the activation mixture.\nNeublastin activity was determined by its ability to stimulate c-Ret phosphorylation in NB41A3-mRL3 cells using the KIRA ELISA described in Example 3. Phosphorylated Ret was detected by incubating (2 hours) the captured receptor with HRP-conjugated phosphotyrosine antibody (4G10; 0.2 µg per well). Following the incubation, the wells were washed six times with TBST, and the HRP activity detected at 450 nm with a colorimetric assay. The absorbance values from wells treated with lysate or with lysis buffer alone were measured, background corrected, and the data plotted as a function of the concentration of neublastin present in the activation mixture."}, "[3]": {"design": "species or system mice", "settings": "mouse, in vivo", "source_text": "The pharmokinetic properties of various PEGylated and non-PEGylated mutated neublastin products in rat and mouse models were examined (see Table 8 for summary of results). The analysis of the PEGylated […] samples are complicated by the presence of adducts comprising 2, 3 and 4 PEGs per molecule, which each will display a different PK profile. In early PK studies, mice were used to facilitate screening through a variety of candidates and routes of administration. […] This difference in bioavailability was particularly pronounced following i.p. administration. Levels in mice reached 1600 ng/mL after 7 hr and remained at 400 ng/mL after 24 hr. In contrast, rat levels were constant at 100 ng/mL for 4-48 hr. Two surprising and unexpected results emerged from the PK studies summarized in Table 8: 1) PEGylation of the amino-terminal amino acids of non-glycosylated neublastin was not sufficient to increase serum exposure substantially, and 2) PEGylation of the amino-terminal amino acid(s) of neublastin together with modification (e.g. PEGylation or glycosylation) of amino acid 95 was sufficient to increase serum exposure substantially."}}}
{"molecule": "3 (,4) X 10 kDa PEG NBN106-N95K: mixed population of NBN106-N95K homodimers conjugated to three or four 10 kDa PEG moieties, average 3.3 PEG per dimer (conjugate) ARATDARGCRLRSQLVPVSALGLGHSSDELIRFRFCSGSCRRARSPHDLSLASLLGAGALRSPPGSRPISQPCCRPTRYEAVSFMDVKSTWRTVDHLSATACGCLG", "values": [{"measurement": "levels after 7 minutes", "setting": "[1]; 1 mg/kg IV, Sprague Dawley rats, 7 minutes", "result": 3000, "unit": "ng/mL"}, {"measurement": "levels after 24 h", "setting": "[1]; 1 mg/kg IV, Sprague Dawley rats, 24 h", "result": 700, "unit": "ng/mL"}, {"measurement": "levels after 48 h", "setting": "[1]; 1 mg/kg IV, Sprague Dawley rats, 48 h", "result": 200, "unit": "ng/mL"}, {"measurement": "maximum circulating levels", "setting": "[1]; 1 mg/kg s.c., maximum after 24 h, remained at this level for the three day study", "result": 200, "unit": "ng/mL"}, {"measurement": "normalization of pain behaviors (tactile and thermal hyperalgesia)", "setting": "[2]; 3 µg/kg s.c. on days 3, 5, 7, 10, 12 and 14, data not shown, onset somewhat slower", "result": "significant normalization"}, {"measurement": "reversal of both types of neuropathic pain (tactile allodynia and thermal hyperalgesia)", "setting": "[2]; 10 µg/kg s.c. on days 3, 5, 7, 10, 12 and 14 post-SNL, rats", "result": "substantial and statistically significant reversal"}, {"measurement": "time after initiation of administration at which effect on thermal sensitivity and tactile allodynia first became statistically significant", "setting": "[2]; 10 µg/kg s.c., rats", "result": 4, "unit": "days"}, {"measurement": "time after initiation of administration at which effect on thermal sensitivity and tactile allodynia reached a plateau", "setting": "[2]; 10 µg/kg s.c., rats", "result": "approximately 4 days"}, {"measurement": "activity / potency in the KIRA ELISA (in words)", "setting": "c-Ret; compared with wild-type NBN113 / mature form", "result": "indistinguishable from that of the wild-type NBN113 material"}, {"measurement": "effect of two freeze-thaw cycles on potency", "setting": "c-Ret; potency in KIRA ELISA after two freeze-thaw cycles", "result": "no effect"}, {"measurement": "levels in mice after 7 hr", "setting": "[3]; ip", "result": 1600, "unit": "ng/mL"}, {"measurement": "levels in mice after 24 hr", "setting": "[3]; ip", "result": 400, "unit": "ng/mL"}, {"measurement": "Exposure in Mice After s.c. Administration", "setting": "[3]; sc", "result": "++"}]}
